Drawing on publication PMC6028389, “Dedicated surveillance mechanism controls G-quadruplex forming non-coding RNAs in human mitochondria”, this text covers Kd for 1 molecule.

The target of the series is T1, GRSF1 wild type (Homo sapiens, UniProt Q12849 118-480).
T1 sequence: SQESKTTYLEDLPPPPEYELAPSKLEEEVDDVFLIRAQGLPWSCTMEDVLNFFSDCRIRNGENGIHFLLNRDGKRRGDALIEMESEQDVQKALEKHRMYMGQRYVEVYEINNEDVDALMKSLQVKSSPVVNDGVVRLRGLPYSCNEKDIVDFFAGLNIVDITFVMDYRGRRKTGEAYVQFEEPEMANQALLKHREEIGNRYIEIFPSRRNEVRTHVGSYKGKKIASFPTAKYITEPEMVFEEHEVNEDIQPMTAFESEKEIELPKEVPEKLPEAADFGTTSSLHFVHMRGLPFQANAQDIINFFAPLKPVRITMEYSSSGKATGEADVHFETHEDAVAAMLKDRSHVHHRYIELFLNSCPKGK
Description: EMSA; 75 ug/ml heparin; EMSA: 5 nM RNA, 0-2560 nM protein, 10 mM Tris-HCl pH 8.0, 2.5 mM KCl, 30 mM NaCl, 1 mM EDTA, 0.2 mM DTT, 75 ug/ml heparin, 30 min at 30 C; 7% PAGE. The settings on record: protein: recombinant; tags: N-terminal 6xHis-SUMO, cleaved by SUMO protease; label: 5'-32P; predicted secondary structure; G4-forming.

One may read the Kd as the concentration at which binding is half-saturated.

B1: tRNA-like (structured_RNA)
RNA: GGGCUGUGACUAGUAUGUUGAGUCCUGUAAGUAGGAGAGUGAUAUUUGAUCAGGAGAACGUGGUUACUAGCACCCA
On to B1, for which the Kd was ~100 nM.
